This assay deals with T1, mouse fibrinogen (mouse, UniProt E9PV24 20-557; Q8K0E8 20-481; Q8VCM7 26-436, limits assumed).
T1 construct: Bought protein; also called fibrinogen from mouse (Sigma)
T1 sequence (looked up) 1: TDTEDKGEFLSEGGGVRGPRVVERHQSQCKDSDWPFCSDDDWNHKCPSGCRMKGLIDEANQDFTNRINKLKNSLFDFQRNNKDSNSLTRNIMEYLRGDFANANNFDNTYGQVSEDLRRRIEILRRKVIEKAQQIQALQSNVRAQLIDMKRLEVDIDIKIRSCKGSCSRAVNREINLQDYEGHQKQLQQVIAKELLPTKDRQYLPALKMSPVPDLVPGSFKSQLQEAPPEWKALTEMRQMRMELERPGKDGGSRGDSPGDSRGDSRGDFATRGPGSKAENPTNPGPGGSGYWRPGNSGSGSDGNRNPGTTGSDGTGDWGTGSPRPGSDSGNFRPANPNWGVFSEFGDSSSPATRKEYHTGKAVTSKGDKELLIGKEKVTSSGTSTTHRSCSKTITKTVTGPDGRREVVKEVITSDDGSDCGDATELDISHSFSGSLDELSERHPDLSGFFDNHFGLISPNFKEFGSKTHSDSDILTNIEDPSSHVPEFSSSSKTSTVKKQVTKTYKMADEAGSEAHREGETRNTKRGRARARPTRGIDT
T1 sequence (looked up) 2: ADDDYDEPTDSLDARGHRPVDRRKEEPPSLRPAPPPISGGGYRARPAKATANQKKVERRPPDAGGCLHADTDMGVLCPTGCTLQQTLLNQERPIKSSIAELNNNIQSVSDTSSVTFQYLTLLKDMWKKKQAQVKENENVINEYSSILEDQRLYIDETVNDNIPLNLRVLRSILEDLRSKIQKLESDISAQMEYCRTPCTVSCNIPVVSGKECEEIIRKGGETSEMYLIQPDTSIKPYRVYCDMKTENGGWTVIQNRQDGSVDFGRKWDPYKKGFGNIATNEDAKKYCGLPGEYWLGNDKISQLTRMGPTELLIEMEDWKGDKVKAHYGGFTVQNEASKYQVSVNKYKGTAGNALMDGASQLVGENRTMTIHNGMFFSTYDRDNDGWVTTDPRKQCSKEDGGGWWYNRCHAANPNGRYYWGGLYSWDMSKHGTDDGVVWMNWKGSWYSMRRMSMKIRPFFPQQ
T1 sequence (looked up) 3: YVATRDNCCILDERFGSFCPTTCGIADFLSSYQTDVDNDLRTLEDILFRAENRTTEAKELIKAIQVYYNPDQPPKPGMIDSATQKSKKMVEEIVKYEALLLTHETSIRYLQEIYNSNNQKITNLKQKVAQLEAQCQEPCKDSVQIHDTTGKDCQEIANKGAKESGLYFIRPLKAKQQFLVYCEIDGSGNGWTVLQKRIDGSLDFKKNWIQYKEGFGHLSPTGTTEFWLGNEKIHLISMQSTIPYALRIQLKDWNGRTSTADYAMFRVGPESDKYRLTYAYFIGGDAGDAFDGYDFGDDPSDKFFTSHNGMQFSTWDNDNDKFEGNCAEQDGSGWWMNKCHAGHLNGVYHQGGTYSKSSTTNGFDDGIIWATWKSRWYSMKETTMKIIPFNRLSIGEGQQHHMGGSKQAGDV
Description: ELISA on coated plate, HRP-protein L detection. (In an ELISA, binding on a coated surface is turned into a signal by an enzyme label.)

B1: recombinant reteplase-(3D5 VL-218-VH scFv α fibrin) protein (other)
chain: SYQGNSDCYFGNGSAYRGTHSLTESGASCLPWNSMILIGKVYTAQNPSAQALGLGKHNYCRNPDGDAKPWCHVLKNRRLTWEYCDVPSCSTCGLRQYSQPQFRIKGGLFADIASHPWQAAIFAKHRRSPGERFLCGGILISSCWILSAAHCFQERFPPHHLTVILGRTYRVVPGEEEQKFEVEKYIVHKEFDDDTYDNDIALLQLKSDSSRCAQESSVVRTVCLPPADLQLPDWTECELSGYGKHEALSPFYSERLKEAHVRLYPSSRCTSQHLLNRTVTDNMLCAGDTRSGGPQANLHDACQGDSGGPLVCLNDGRMTLVGIISWGLGCGQKDVPGVYTKVTNYLDWIRDNMRPASGGGGSGGGGSGGGGSDIQMTQSPSSLSASVGDRVTITCRASQDVSNNVAWYQQKPGKAPKLLIFWSPWLYSGVPSRFSGSGSGTDFTLTISSLQPEDFATYYCQQGWDSPVTFGQGTKVEIKRGSTSGSGKPGSGEGSTKGEVQLVESGGGLVQPGGSLRLSCAASGFTISDFGIHWVRQAPGKGLEWVASIWPSGGYTYYADSVKGRFTISADTSKNTAYLQMNSLRAEDTAVYYCARSWFYSWYDYWGQGTLVTVSS
notes: Fusion: reteplase, flexible linker, 3D5 VL, 218 linker, 3D5 VH; also called reteplase-(3D5 scFv); reteplase-(3D5-scFv)
In the case of B1, the binding result is reported as “no binding (tested: 200 nM)”.
